Source: CN111875700A (CUSABIO BIOTECH CO LTD, dated 2020)

Biological target: T1, SARS-COV-2病毒N蛋白 (nucleocapsid protein) (SARS-COV-2, UniProt P0DTC9 1-419)
T1 construct: Recombinant N protein; also called 核衣壳蛋白
Experiment: ELISA of scFv supernatants on coated N protein, detected with anti-E/HRP

B1: 1A6单链抗体 (1A6 scFv) (scFv)
scFv: EVKLKESGAELVKPGASVKLSCTASGFNIKDTYMHWVKQRPGQGLEWIGYINPSTGYTEYNQKFKDKATLTADKSSSTAYMQLSSLTSEDSAVYYCARDALGWYFDVWGAGTLVTVSTGGGGSGGGGSGGGGSDVVMTQSHKFMSTSVGDRVSVTCKASQNVGTNVAWYQQKPGQFPKALIYSASYRYSGVPDRFTGSGSGTDFTLTISNVQSEDLAEYFCQQYNSYPLTFGAGTKLEIK
notes: also called 1A6 single-chain antibody; not shown: E-tag from vector pCANTAB5E (detected with anti-E/HRP)
binding result: binds
